# Assay results taken from patent US20240352438A1, “MEANS AND METHODS FOR DETOXIFYING OCHRATOXIN A” (DSM Austria GmbH, priority 2021, published 2024).
# Numbering of substitutions follows the chain as printed.
# B1: 266 (protein)
# chain: MTTRTRILTAFLSLLAANACAADAAPAAPHTVVLRAARMFDGASGKLVDHPQLTIVGNKIVRIAQGDKAEVPAGAEVVDLGDATLLPGFIDAHVHLSGQSSDNWYGRFFDNMMRFPAEQALYGAYYARITLEAGFTSVRDVGSTDWVALGLRNAIDAGKVPGPRMLVSNYAVGSTGGHADQDPIPPHKLPLAGPLQGVCNGPEECRAAVRYQIKYGANVIKFMPSGGVLSLSDPVDAPELSQDEMNAVIGESHAWGRKVAAHAHGDKAAKMAVAAGVDSIEHGSFIEDDTLRAMKAKNVYLVPTISAIAHVEEKIGTFPPVIAEKGRAAAAHLRQTFRHAVQIGVPIALGTDAGVGAHGSNAREFRYMVENGLTPAQALLAGTANAARLLGTFDRVGTLEAGKLADVVAVPGNPIADITVTERPLFVMKDGVVVRRDAVR
# modifications: exemplary polypeptide
# B2: 271 (protein)
# chain: B1 chain with R107D, M113R
# modifications: exemplary polypeptide
# B3: 314 (protein)
# chain: B1 chain with R107D, I308V, L333I
# modifications: exemplary polypeptide
# B4: 277 (protein)
# chain: B1 chain with R107D, A192L
# modifications: exemplary polypeptide
# B5: 298 (protein)
# chain: B1 chain with R107D, G354A, G356Y
# modifications: exemplary polypeptide
# B6: 279 (protein)
# chain: B1 chain with R107D, A192V
# modifications: exemplary polypeptide
# B7: 302 (protein)
# chain: B1 chain with R107D, G354P, V355L
# modifications: exemplary polypeptide
# B8: 110 (protein)
# chain: B1 chain with R107D, K314E
# modifications: exemplary polypeptide
# B9: 293 (protein)
# chain: B1 chain with R107D, I308V, A329V
# modifications: exemplary polypeptide
# B10: 104 (protein)
# chain: B1 chain with R107D, I184F
# modifications: exemplary polypeptide
# B11: 99 (protein)
# chain: B1 chain with R107D, F109V
# modifications: exemplary polypeptide
# B12: 278 (protein)
# chain: B1 chain with R107D, A192M
# modifications: exemplary polypeptide
# B13: 92 (protein)
# chain: B1 chain with R107D, F318M
# modifications: exemplary polypeptide
# B14: 101 (protein)
# chain: B1 chain with R107D, M112I
# modifications: exemplary polypeptide
# B15: 86 (protein)
# chain: B1 chain with R107D, A307T
# modifications: exemplary polypeptide
# B16: 283 (protein)
# chain: B1 chain with R107D, V235D
# modifications: exemplary polypeptide
# B17: 100 (protein)
# chain: B1 chain with R107D, F109L
# modifications: exemplary polypeptide
# B18: 90 (protein)
# chain: B1 chain with R107D, G354A
# modifications: exemplary polypeptide
# B19: 109 (protein)
# chain: B1 chain with R107D, K314Q
# modifications: exemplary polypeptide
# B20: 102 (protein)
# chain: B1 chain with R107D, M112W
# modifications: exemplary polypeptide
# B21: 93 (protein)
# chain: B1 chain with R107D, A329G
# modifications: exemplary polypeptide
# B22: 276 (protein)
# chain: B1 chain with R107D, G176S
# modifications: exemplary polypeptide
# B23: 65 (protein)
# chain: B1 chain with R107D, N361W
# modifications: exemplary polypeptide
# Test: OTA detoxification activity assay (specific activity, fluorescence reduction ex/em 390/450 nm)
# Format: biochemical
# Conditions: pH 6.0; SEQ ID NO: 1 = 100%
# Description: To determine the specific activity of recombinant target polypeptides produced e.g. as described in Example 2 above in units per liter (U/L), ochratoxin A (OTA) detoxification activity assays were performed. One unit is defined as the amount of enzyme necessary for degradation of 1 μmol or OTA in 1 min when using a starting OTA concentration of […].
# OTA detoxification activity assays were set up in a final volume of the reaction mixture of […], containing the recombinant enzyme preparation (preferably diluted to yield a volumetric activity of 1-10 mU/L), and 200 ng/mL OTA in 100 mM sodium phosphate buffer.
# Specific activities were determined at pH 6.0 and pH 7.5. As soon as all components of the reaction mixture were mixed, OTA degradation was followed at 37° C. on a fluorescence spectrophotometer (BioTek Synergy H1 MFD Multimode microplate reader) by following the reduction in fluorescence at ex/em 390 nm/450 nm. For work performed at pH 6.0 and 7.5, a 100 mM sodium phosphate buffer was used.
# For calculation of the specific activity, the initial linear part of the recorded fluorescence reduction curve was used. In addition to the fluorescence-based method described above, OTA degradation was also determined by using the HPLC-MS method as described by Dellafiora et al. 2020, Toxins 12, 258, essentially confirming the fluorescence-based results. Genes encoding either of the indicated SEQ ID NOs are expressed as described herein and the specific activities for the obtained polypeptide preparation are exemplarily shown in Table 8. Analogously, enzymatic activities using either ochratoxin B, C or TA as substrate or can be found.
row,Molecule,"Specific OTA detoxification activities in % compared to the enzyme of SEQ ID NO: 1, pH 6.0"
1,B1,11%
2,B2,6%
3,B3,71%
4,B4,6%
5,B5,15%
6,B6,23%
7,B7,26%
8,B8,33%
9,B9,16%
10,B10,102%
11,B11,52%
12,B12,32%
13,B13,37%
14,B14,82%
15,B15,4%
16,B16,29%
17,B17,43%
18,B18,99%
19,B19,74%
20,B20,50%
21,B21,20%
22,B22,13%
23,B23,4%

# Same assay, conditions: pH 7.5; SEQ ID NO: 1 = 100%
row,Molecule,"Specific OTA detoxification activities in % compared to the enzyme of SEQ ID NO: 1, pH 7.5"
1,B1,22%
2,B2,23%
3,B3,33%
4,B4,14%
5,B5,17%
6,B6,36%
7,B7,23%
8,B8,48%
9,B9,18%
10,B10,71%
11,B11,58%
12,B12,19%
13,B13,52%
14,B14,89%
15,B15,9%
16,B16,23%
17,B17,28%
18,B18,162%
19,B19,107%
20,B20,89%
21,B21,17%
22,B22,30%
23,B23,10%
